# Reference: IntAct's records for PubMed 34948388
# B1: Multifunctional methyltransferase subunit TRM112-like protein (Homo sapiens), Q9UI30 (parent)
# chain: MKLLTHNLLSSHVRGVGSRGFPLRLQATEVRICPVEFNPNFVARMIPKVEWSAFLEAADNLRLIQVPKGPVEGYEENEEFLRTMHHLLLEVEVIEGTLQCPESGRMFPISRGIPNMLLSEEETES
# partner: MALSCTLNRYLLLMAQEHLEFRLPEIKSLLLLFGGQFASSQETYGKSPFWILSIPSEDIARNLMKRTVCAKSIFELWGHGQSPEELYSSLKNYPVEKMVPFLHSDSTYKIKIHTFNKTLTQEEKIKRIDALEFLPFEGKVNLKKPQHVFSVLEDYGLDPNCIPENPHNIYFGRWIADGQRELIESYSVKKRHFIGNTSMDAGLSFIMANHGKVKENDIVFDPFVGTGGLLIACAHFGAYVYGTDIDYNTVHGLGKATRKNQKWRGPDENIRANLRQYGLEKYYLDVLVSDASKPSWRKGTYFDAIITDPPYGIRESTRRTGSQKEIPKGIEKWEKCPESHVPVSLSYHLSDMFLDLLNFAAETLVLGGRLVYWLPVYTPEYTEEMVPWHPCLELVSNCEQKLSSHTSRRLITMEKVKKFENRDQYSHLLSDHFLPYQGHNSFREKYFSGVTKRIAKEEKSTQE
# B2: Multifunctional methyltransferase subunit TRM112-like protein (Homo sapiens), Q9UI30 (parent)
# chain: B1 chain
# partner: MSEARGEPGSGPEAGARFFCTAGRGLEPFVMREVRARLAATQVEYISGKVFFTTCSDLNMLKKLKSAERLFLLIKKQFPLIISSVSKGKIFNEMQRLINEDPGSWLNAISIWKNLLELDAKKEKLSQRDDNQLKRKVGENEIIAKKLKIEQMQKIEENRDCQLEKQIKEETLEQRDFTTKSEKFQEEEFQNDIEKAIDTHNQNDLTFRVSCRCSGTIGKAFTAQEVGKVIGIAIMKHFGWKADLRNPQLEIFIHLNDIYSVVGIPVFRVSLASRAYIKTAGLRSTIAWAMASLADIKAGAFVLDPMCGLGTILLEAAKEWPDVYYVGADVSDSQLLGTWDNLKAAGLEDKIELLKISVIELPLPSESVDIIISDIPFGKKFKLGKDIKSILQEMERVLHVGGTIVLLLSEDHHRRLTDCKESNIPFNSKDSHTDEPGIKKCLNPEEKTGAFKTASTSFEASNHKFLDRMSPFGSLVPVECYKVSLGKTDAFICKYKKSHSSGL
# B3: Multifunctional methyltransferase subunit TRM112-like protein (Homo sapiens), Q9UI30 (parent)
# chain: B1 chain
# partner: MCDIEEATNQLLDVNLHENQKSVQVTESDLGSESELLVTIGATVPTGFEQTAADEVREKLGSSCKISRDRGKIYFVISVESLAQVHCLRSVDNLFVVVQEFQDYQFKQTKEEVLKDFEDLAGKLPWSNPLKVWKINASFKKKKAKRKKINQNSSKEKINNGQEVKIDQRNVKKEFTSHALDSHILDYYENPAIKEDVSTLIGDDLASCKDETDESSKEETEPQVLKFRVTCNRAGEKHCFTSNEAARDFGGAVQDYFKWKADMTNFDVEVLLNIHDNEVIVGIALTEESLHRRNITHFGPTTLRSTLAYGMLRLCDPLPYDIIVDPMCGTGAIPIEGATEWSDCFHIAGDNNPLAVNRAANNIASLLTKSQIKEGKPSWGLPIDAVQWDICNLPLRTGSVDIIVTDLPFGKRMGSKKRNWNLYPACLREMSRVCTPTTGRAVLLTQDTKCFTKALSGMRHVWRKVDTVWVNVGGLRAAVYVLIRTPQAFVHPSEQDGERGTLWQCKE
# Variants of: B1
# Details: with trm11_human TRMT11, Q7Z4G4
row,effect of a mutation on the interaction,Variant
1,disrupting interaction strength,MKLLAHNLLSSHVRGVGSRGFPLRLQATEVRICPVEFNPNFVARMIPKVEWSAFLEAADNLRLIQVPKGPVEGYEENEEFLRTMHHLLLEVEVIEGTLQCPESGRMFPISRGIPNMLLSEEETES [T5A]

# Variants of: B2
# Details: with thum2_human THUMPD2, Q9BTF0
row,Variant,effect of a mutation on the interaction
1,MKLLTHNLLSSHVRGVGSRGFPLRLQATEVRICPVEFNPNFVARMIPAVEWSAFLEAADNLRLIQVPKGPVEGYEENEEFLRTMHHLLLEVEVIEGTLQCPESGRMFPISRGIPNMLLSEEETES [K48A],disrupting interaction strength
2,MKLLTHNLLSSHVRGVGSRGFPLRLQATEVRICPVEFNPNFVARMIPKVAWSAFLEAADNLRLIQVPKGPVEGYEENEEFLRTMHHLLLEVEVIEGTLQCPESGRMFPISRGIPNMLLSEEETES [E50A],with no effect
3,MKLLTHNLLSSHVRGVGSRGFPLRLQATEVRICPVEFNPNFVARMIPKVEWSAFLEAADNLRLIQVPKGPVEGYEENEEFLRTMHHLLLEVEVIEGTLQCPESGRMAPISRGIPNMLLSEEETES [F107A],disrupting interaction strength

# Other lines, results leading:
row,effect of a mutation on the interaction,Variant
1,disrupting interaction strength,MKLLTHNLLSSHVRGVGSRGFPLRLQATEVRICPVEFNPNFVARMIPAVEWSAFLEAADNLRLIQVPKGPVEGYEENEEFLRTMHHLLLEVAVIEGTLQCPESGRMFPISRGIPNMLLSEEETES [K48A;E92A]
2,disrupting interaction strength,MKLLTHNWLSSHVRGVGSRGFPLRLQATEVRICPVEFNPNFVARMIPKVEWSAFLEAADNLRLIQVPKGPVEGYEENEEFLRTMHHLLLEVEVIEGTLQCPESGRMFPISRGIPNMLLSEEETES [L8W]
3,disrupting interaction strength,MKLLAHNLLSSHVRGVGSRGFPLRLQATEVRICPVEFNPNFVARMIPKVEWSAFLEAADNLRLIQVPKGPVEGYEENEEFLRTMHHLLLEVEVIEGTLQCPESGRMFPISRGIPNMLLSEEETES [T5A]
4,disrupting interaction strength,MKLLTHNLLSSHVRGVGSRGFPLRLQATEVRICPVEFNPNFVARMIPKVEWSAFLEAADNLRLIQVPKGPVEGYEENEEFLRTMHHLLLEVAVIEGTLQCPESGRMFPISRGIPNMLLSEEETES [E92A]
5,disrupting interaction strength,MKLLTHNLLSSHVRGVGSRGFPLRLQATEVRICPVEFNPNFVARAIPKVEWSAFLEAADNLRLIQVPKGPVEGYEENEEFLRTMHHLLLEVEVIEGTLQCPESGRMFPISRGIPNMLLSEEETES [M45A]
6,disrupting interaction strength,MKLLTHNLLFSHVRGVGSRGFPLRLQATEVRICPVEFNPNFVARMIPKVEWSAFLEAADNLRLIQVPKGPVEGYEENEEFLRTMHHLLLEVEVIEGTLQCPESGRMFPISRGIPNMLLSEEETES [S10F]

# Variants of: B3
# Details: with thum3_human THUMPD3, Q9BV44
row,Variant,effect of a mutation on the interaction
1,MKLLAHNLLSSHVRGVGSRGFPLRLQATEVRICPVEFNPNFVARMIPKVEWSAFLEAADNLRLIQVPKGPVEGYEENEEFLRTMHHLLLEVEVIEGTLQCPESGRMFPISRGIPNMLLSEEETES [T5A],disrupting interaction strength
2,MKLLTHNWLSSHVRGVGSRGFPLRLQATEVRICPVEFNPNFVARMIPKVEWSAFLEAADNLRLIQVPKGPVEGYEENEEFLRTMHHLLLEVEVIEGTLQCPESGRMFPISRGIPNMLLSEEETES [L8W],disrupting interaction strength
3,MKLLTHNLLSSHVRGVGSRGFPLRLQATEVRICPVEFNPNFVARMIPAVEWSAFLEAADNLRLIQVPKGPVEGYEENEEFLRTMHHLLLEVEVIEGTLQCPESGRMFPISRGIPNMLLSEEETES [K48A],disrupting interaction strength
4,MKLLTHNLLSSHVRGVGSRGFPLRLQATEVRICPVEFNPNFVARMIPKVEWSAFLEAADNLRLIQVPKGPVEGYEENEEFLRTMHHLLLEVEVIEGTLQCPESGRMAPISRGIPNMLLSEEETES [F107A],disrupting interaction strength

# Now from value to variant:
row,effect of a mutation on the interaction,Variant
1,with no effect,MKLLTHNLLFSHVRGVGSRGFPLRLQATEVRICPVEFNPNFVARMIPKVEWSAFLEAADNLRLIQVPKGPVEGYEENEEFLRTMHHLLLEVEVIEGTLQCPESGRMFPISRGIPNMLLSEEETES [S10F]
2,disrupting interaction strength,MKLLTHNLLSSHVRGVGSRGFPLRLQATEVRICPVEFNPNFVARAIPKVEWSAFLEAADNLRLIQVPKGPVEGYEENEEFLRTMHHLLLEVEVIEGTLQCPESGRMFPISRGIPNMLLSEEETES [M45A]
3,disrupting interaction strength,MKLLTHNLLSSHVRGVGSRGFPLRLQATEVRICPVEFNPNFVARMIPAVEWSAFLEAADNLRLIQVPKGPVEGYEENEEFLRTMHHLLLEVAVIEGTLQCPESGRMFPISRGIPNMLLSEEETES [K48A;E92A]
4,disrupting interaction strength,MKLLTHNLLSSHVRGVGSRGFPLRLQATEVRICPVEFNPNFVARMIPKVEWSAFLEAADNLRLIQVPKGPVEGYEENEEFLRTMHHLLLEVEVIEGTLQCPESGRMFPISRGAPNMLLSEEETES [I113A]
5,with no effect,MKLLTHNLLSSHVRGVGSRGFPLRLQATEVRICPVEFNPNFVARMIPKVAWSAFLEAADNLRLIQVPKGPVEGYEENEEFLRTMHHLLLEVEVIEGTLQCPESGRMFPISRGIPNMLLSEEETES [E50A]
6,disrupting interaction strength,MKLLTHNLLSSHVRGVGSRGFPLRLQATEVRICPVEFNPNFVARMIPKVEWSAFLEAADNLRLIQVPKGPVEGYEENEEFLRTMHHLLLEVAVIEGTLQCPESGRMFPISRGIPNMLLSEEETES [E92A]
